Assay results reported in patent publication US8771694 (IMMUNOMEDICS, dated 2014).
Substitutions are numbered along the chain they refer to.

T1: CD22 (LL2 antigen on the surface of Raji cells) (UniProt P20273 20-847, limits assumed)
T1 construct: whole, on cells; All assays used whole Raji cells; also called Raji cell surface antigen; B-lymphoma cells
T1 sequence (looked up): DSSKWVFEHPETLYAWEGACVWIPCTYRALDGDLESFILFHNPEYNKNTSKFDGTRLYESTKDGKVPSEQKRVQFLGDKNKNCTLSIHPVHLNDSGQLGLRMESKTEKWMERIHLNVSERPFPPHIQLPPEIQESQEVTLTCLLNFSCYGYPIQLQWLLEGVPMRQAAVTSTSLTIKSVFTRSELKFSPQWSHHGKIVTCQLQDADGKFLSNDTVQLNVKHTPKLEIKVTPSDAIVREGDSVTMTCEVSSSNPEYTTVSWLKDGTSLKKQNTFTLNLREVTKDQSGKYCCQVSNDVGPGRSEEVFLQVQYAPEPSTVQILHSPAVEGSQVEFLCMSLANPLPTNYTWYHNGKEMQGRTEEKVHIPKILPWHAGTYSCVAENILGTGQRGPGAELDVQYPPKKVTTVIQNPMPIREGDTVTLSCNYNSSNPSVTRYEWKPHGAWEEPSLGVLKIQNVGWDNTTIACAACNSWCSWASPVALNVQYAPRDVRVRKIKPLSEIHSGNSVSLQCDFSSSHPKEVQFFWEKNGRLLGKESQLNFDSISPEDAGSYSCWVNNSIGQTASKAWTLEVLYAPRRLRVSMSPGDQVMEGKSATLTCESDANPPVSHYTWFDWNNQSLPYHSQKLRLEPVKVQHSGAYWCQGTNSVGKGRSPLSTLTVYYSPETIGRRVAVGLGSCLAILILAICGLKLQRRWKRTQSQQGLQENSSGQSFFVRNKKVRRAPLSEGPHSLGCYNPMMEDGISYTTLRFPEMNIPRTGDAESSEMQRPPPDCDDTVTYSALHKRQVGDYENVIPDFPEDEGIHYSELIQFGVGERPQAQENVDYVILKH

B1: humanized LL2 version 1 (antibody, human IgG1, V domains shown)
VH: QVQLQQSGAEVKKPGSSVKVSCKASGYTFTSYWLHWVRQAPGQGLEWIGYINPRNDYTEYNQNFKDKATITADESTNTAYMELSSLRSEDTAFYFCARRDITTFYWGQGTTVTVSS
VL: DIQLTQSPSSLSASVGDRVTMSCKSSQSVLYSANHKNYLAWYQQKPGKAPKLLIYWASTRESGVPSRFSGSGSGTDFTFTISSLQPEDIATYYCHQYLSSWTFGGGTKVQIKR
notes: VH has Q at Kabat position 5; also called hLL2-1; hLL2 with seven murine FR residues in the VH domain
B2: humanized LL2 version 2 (antibody, human IgG1, V domains shown)
VH: B1 VH with Q5V
VL: B1 VL
notes: VH has V at Kabat position 5; also called hLL2-2; hLL2

Biological target: T1, CD22 (LL2 antigen on the surface of …)
Test: competition flow cytometry on Raji cells, competitor mLL2 F(ab')2
Protocol: The Raji cell surface antigen binding affinities of mix-and-match and fully humanized antibodies can be compared to that of cLL2 using various concentrations of mLL2 F(ab')_2 fragments devoid of the Fc portion as competitors, as evaluated by flow cytometry assay. Residual surface-bound LL2 antibodies carrying the human Fc portions (cLL2 and mix-and-match LL2) can be detected by a FITC-labeled anti-human Fc specific antibody in a flow cytometry assay.
Briefly, 1 µg of cLL2, mix-and-match LL2, hLL2-1 or hLL2-2 antibodies were incubated with […] Raji cells in the presence of varying concentrations of mLL2 F(ab')_2 fragments (as competitor) in a final volume of 100 µl of PBS buffer supplemented with 1% FCS and 0.01% sodium azide. The mixture was incubated for 30 minutes at 4° C., and washed three times with PBS to remove unbound antibodies. By taking advantage of the presence of human Fc portions in the antibodies, the binding levels of the antibodies were assessed by adding a 20×diluted FITC-labeled goat anti-human IgG1, Fc fragment-specific antibodies (Jackson ImmunoResearch, West Grove, Pa.). The cells were washed three times with PBS, and fluorescence intensities measured by a FACSCAN fluorescence activated cell sorter (Becton-Dickinson, Bedford, Mass.).

Row | Binder | binding result
1 | B1 | binds
2 | B2 | binds
